In patent publication US20220017622A1 (Pfizer, published 2022):

How the values were obtained:
human B7-H4 on cells = target: T1, human B7-H4 on cells (human, UniProt Q7Z7D3 25-282); assay: cell-based or functional assay
T1 sequence (looked up): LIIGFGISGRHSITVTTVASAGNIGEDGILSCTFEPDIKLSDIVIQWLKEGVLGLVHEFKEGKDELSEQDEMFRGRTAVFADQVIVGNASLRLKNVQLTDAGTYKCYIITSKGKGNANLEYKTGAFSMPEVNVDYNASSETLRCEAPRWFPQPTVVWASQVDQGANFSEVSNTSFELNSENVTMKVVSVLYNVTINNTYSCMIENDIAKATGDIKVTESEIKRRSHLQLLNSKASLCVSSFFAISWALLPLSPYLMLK

[1] = target: T2, cyno B7-H4 extracellular domain (cyno, UniProt Q7Z7D3 29-258 (human entry)); assay: SPR 37 C; bispecific on anti-hFc chip, ECD analyte
T2 construct: Soluble ECD used as SPR analyte; also called cyB7-H4 ECD; cyB7-H4
T2 sequence: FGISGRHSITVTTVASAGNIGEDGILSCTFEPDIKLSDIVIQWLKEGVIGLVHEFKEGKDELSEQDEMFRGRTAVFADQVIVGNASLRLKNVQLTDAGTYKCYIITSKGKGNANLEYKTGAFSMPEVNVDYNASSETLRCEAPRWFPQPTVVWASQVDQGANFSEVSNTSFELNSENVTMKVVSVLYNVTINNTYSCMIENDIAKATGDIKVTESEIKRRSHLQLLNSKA

[2] = target: T3, human B7-H4 extracellular domain (human, UniProt Q7Z7D3 29-258); assay: SPR 37 C; bispecific on anti-hFc chip, ECD analyte
T3 construct: Soluble ECD used as SPR analyte; also called huB7-H4 ECD; huB7-H4
T3 sequence: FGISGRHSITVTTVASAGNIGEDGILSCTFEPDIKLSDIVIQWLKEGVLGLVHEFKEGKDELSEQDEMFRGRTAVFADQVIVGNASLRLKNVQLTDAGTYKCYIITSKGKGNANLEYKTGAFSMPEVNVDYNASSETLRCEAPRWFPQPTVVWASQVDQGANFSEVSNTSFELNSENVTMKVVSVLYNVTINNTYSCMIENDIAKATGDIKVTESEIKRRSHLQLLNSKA

[3] = target: T4, cyno CD3 (delta/epsilon heterodimer) (cyno, UniProt Q95LI5 22-117; Q95LI8 22-105); assay: SPR 25 C; CD3 delta/epsilon on anti-His chip, bispecific analyte
T4 construct: also called cyCD3

[4] = target: T5, human CD3 (delta/epsilon heterodimer) (human, UniProt P07766 23-126; P04234 22-105); assay: as above
T5 construct: captured on an anti-His chip, so it carries a His tag; also called huCD3

[5] = target: T6, mouse B7-H4 extracellular domain (mouse, UniProt Q7TSP5 29-258); assay: SPR 25 C; bispecific on anti-hFc chip, ECD analyte
T6 construct: Soluble ECD used as SPR analyte; also called muB7-H4 ECD; muB7-H4
T6 sequence: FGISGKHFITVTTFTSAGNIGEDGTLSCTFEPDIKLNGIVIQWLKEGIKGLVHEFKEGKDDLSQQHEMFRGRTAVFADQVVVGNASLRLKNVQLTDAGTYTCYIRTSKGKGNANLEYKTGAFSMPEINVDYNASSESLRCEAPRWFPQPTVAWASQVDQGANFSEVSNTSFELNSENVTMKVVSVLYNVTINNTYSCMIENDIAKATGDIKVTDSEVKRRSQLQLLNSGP

[6] = target: T2, cyno B7-H4 extracellular domain; assay: SPR 25 C; bispecific on anti-hFc chip, ECD analyte
[7] = target: T3, human B7-H4 extracellular domain; assay: SPR 25 C; bispecific on anti-hFc chip, ECD analyte
[8] = target: T7, human B7-H4 on human tumor cell lines (human, UniProt Q7Z7D3 25-282); assay: cell-based or functional assay
T7 sequence (looked up): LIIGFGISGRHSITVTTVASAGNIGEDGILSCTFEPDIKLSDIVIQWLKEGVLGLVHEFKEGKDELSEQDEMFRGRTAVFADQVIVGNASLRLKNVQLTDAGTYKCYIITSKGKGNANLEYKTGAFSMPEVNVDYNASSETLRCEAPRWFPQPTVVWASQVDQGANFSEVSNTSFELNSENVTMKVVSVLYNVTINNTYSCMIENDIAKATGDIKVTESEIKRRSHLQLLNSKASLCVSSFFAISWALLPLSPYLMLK

[9] = target: T3, human B7-H4 extracellular domain; assay: SPR 37 C; IgG1 on anti-hFc chip, ECD analyte;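 further: antibodies captured, then B7-H4 ECD injected at five 3-fold dilutions from 300 nM, 65 s association and 600 s dissociation, fitted to a 1:1 Langmuir model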
[10] = target: T6, mouse B7-H4 extracellular domain; assay: SPR 37 C; IgG1 on anti-hFc chip, ECD analyte
[11] = target: T2, cyno B7-H4 extracellular domain; assay: SPR 37 C; IgG1 on anti-hFc chip, ECD analyte

T4 sequence (Q95LI5 22-117, stated change not applied, chain 1 of 2): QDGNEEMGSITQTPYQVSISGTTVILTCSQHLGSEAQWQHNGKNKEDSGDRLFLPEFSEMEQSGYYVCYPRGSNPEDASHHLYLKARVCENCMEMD
T4 sequence (Q95LI8 22-105, stated change not applied, chain 2 of 2): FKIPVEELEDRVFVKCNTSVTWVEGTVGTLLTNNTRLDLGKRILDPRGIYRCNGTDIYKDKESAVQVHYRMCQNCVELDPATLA
T5 sequence (P07766 23-126, stated change not applied, chain 1 of 2): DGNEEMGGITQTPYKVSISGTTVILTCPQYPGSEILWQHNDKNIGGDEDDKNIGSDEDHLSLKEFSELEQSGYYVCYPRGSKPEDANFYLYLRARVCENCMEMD
T5 sequence (P04234 22-105, stated change not applied, chain 2 of 2): as the sequence (Q95LI8 22-105, stated change not applied, chain 2 of 2) above, with V5I, K15N, V20I, T32S, N33D, N34I, A64T, N74S, L83V counted along it

B1: B7-H4xCD3 bispecific antibody 0080 (bispecific antibody, IgG2)
heavy 1: QVQLQQWGAGLLKPSETLPLTCAVYGGSFSGYYWNWIRQPPGKGLEWIGEINHSGSATYNPSLKSRVTISVDTSKNHFSLKLSSVTAADTAVYFCARGLYNWNVDHWGQGTLVTVSSASTKGPSVFPLAPCSRSTSESTAALGCLVKDYFPEPVTVSWNSGALTSGVHTFPAVLQSSGLYSLSSVVTVPSSNFGTQTYTCNVDHKPSNTKVDKTVERKCEVECPECPAPPVAGPSVFLFPPKPKDTLMISRTPEVTCVVVAVSHEDPEVQFNWYVDGVEVHNAKTKPREEQFNSTFRVVSVLTVVHQDWLNGKEYKCKVSNKGLPSSIEKTISKTKGQPREPQVYTLPPSREEMTKNQVSLTCEVKGFYPSDIAVEWESNGQPENNYKTTPPMLDSDGSFFLYSKLTVDKSRWQQGNVFSCSVMHEALHNHYTQKSLSLSPGK
light 1: DIQMTQSPSSLSASVGDRVTITCRASQGIRNDLGWYQQKPGKAPKRLIYAASSLQSGVPSRFSGSGSGTEFTLTISSLQPEDFATYYCLQHNSYPRTFGGGTKVEIKRTVAAPSVFIFPPSDEQLKSGTASVVCLLNNFYPREAKVQWKVDNALQSGNSQESVTEQDSKDSTYSLSSTLTLSKADYEKHKVYACEVTHQGLSSPVTKSFNRGEC
heavy 2: EVQLVESGGGLVQPGGSLRLSCAASGFTFSDYYMTWVRQAPGKGLEWVAFIRNQARGYTSDHNPSVKGRFTISRDNAKNSLYLQMNSLRAEDTAVYYCARDRPSYYVLDYWGQGTTVTVSSASTKGPSVFPLAPCSRSTSESTAALGCLVKDYFPEPVTVSWNSGALTSGVHTFPAVLQSSGLYSLSSVVTVPSSNFGTQTYTCNVDHKPSNTKVDKTVERKCRVRCPRCPAPPVAGPSVFLFPPKPKDTLMISRTPEVTCVVVAVSHEDPEVQFNWYVDGVEVHNAKTKPREEQFNSTFRVVSVLTVVHQDWLNGKEYKCKVSNKGLPSSIEKTISKTKGQPREPQVYTLPPSREEMTKNQVSLTCLVKGFYPSDIAVEWESNGQPENNYKTTPPMLDSDGSFFLYSRLTVDKSRWQQGNVFSCSVMHEALHNHYTQKSLSLSPGK
light 2: DIQMTQSPSSLSASVGDRVTITCTSSQSLFNVRSQKNYLAWYQQKPGKAPKLLIYWASTRESGVPSRFSGSGSGTDFTLTISSLQPEDFATYYCKQSYDLFTFGGGTKVEIKRTVAAPSVFIFPPSDEQLKSGTASVVCLLNNFYPREAKVQWKVDNALQSGNSQESVTEQDSKDSTYSLSSTLTLSKADYEKHKVYACEVTHQGLSSPVTKSFNRGEC
notes: Chains 1-2: B7-H4 arm; chains 3-4: CD3 arm; IgG2 EEE/RRR; also called anti-B7-H4 clone 7H7
T cell mediated tumor cell killing EC50, HCC1954-Luc (human B7-H4 on cells): 36 nM
Kd [1]: 12.8 nM
koff [1]: 0.00282 s⁻¹
kon [1]: 220000 M⁻¹ s⁻¹
Kd [2]: 6.08 nM
koff [2]: 0.00283 s⁻¹
kon [2]: 465000 M⁻¹ s⁻¹
Kd [3]: 13.3 nM
koff [3]: 0.00493 s⁻¹
kon [3]: 372000 M⁻¹ s⁻¹
Kd [4]: 12.7 nM
koff [4]: 0.00521 s⁻¹
kon [4]: 411000 M⁻¹ s⁻¹
Kd [5]: 74.8 nM
koff [5]: 0.0138 s⁻¹
kon [5]: 189000 M⁻¹ s⁻¹
Kd [6]: 4.29 nM
koff [6]: 0.000676 s⁻¹
kon [6]: 157000 M⁻¹ s⁻¹
Kd [7]: 2.39 nM
koff [7]: 0.000692 s⁻¹
kon [7]: 296000 M⁻¹ s⁻¹

B2: B7-H4xCD3 bispecific antibody 1167 (bispecific antibody, IgG2)
heavy 1: EVQLLESGGGLVQPGGSLRLSCAASGFTFSSYAMSWVRQAPGKGLEWVSAISGGGGSTYYADSVKGRFTISRDNSKNTLYLQMNSLRAEDTAVYYCARDIQWYGESTLFDYWGQGTLVTVSSASTKGPSVFPLAPCSRSTSESTAALGCLVKDYFPEPVTVSWNSGALTSGVHTFPAVLQSSGLYSLSSVVTVPSSNFGTQTYTCNVDHKPSNTKVDKTVERKCEVECPECPAPPVAGPSVFLFPPKPKDTLMISRTPEVTCVVVAVSHEDPEVQFNWYVDGVEVHNAKTKPREEQFNSTFRVVSVLTVVHQDWLNGKEYKCKVSNKGLPSSIEKTISKTKGQPREPQVYTLPPSREEMTKNQVSLTCEVKGFYPSDIAVEWESNGQPENNYKTTPPMLDSDGSFFLYSKLTVDKSRWQQGNVFSCSVMHEALHNHYTQKSLSLSPGK
light 1: DIQMTQSPSSLSASVGDRVTITCRASQSTRSHLAWYQQKPGKAPKLLIYKASSLEGGVPSRFSGSGSGTDFTLTISSLQPEDFATYYCQQYGSYSRTFGQGTKVEIKRTVAAPSVFIFPPSDEQLKSGTASVVCLLNNFYPREAKVQWKVDNALQSGNSQESVTEQDSKDSTYSLSSTLTLSKADYEKHKVYACEVTHQGLSSPVTKSFNRGEC
heavy 2: EVQLVESGGGLVQPGGSLRLSCAASGFTFSDYYMTWVRQAPGKGLEWVAFIRNQARGYTSDHNPSVKGRFTISRDNAKNSLYLQMNSLRAEDTAVYYCARDRPSYYVLDYWGQGTTVTVSSASTKGPSVFPLAPCSRSTSESTAALGCLVKDYFPEPVTVSWNSGALTSGVHTFPAVLQSSGLYSLSSVVTVPSSNFGTQTYTCNVDHKPSNTKVDKTVERKCRVRCPRCPAPPVAGPSVFLFPPKPKDTLMISRTPEVTCVVVAVSHEDPEVQFNWYVDGVEVHNAKTKPREEQFNSTFRVVSVLTVVHQDWLNGKEYKCKVSNKGLPSSIEKTISKTKGQPREPQVYTLPPSREEMTKNQVSLTCLVKGFYPSDIAVEWESNGQPENNYKTTPPMLDSDGSFFLYSRLTVDKSRWQQGNVFSCSVMHEALHNHYTQKSLSLSPGK
light 2: DIQMTQSPSSLSASVGDRVTITCTSSQSLFNVRSQKNYLAWYQQKPGKAPKLLIYWASTRESGVPSRFSGSGSGTDFTLTISSLQPEDFATYYCKQSYDLFTFGGGTKVEIKRTVAAPSVFIFPPSDEQLKSGTASVVCLLNNFYPREAKVQWKVDNALQSGNSQESVTEQDSKDSTYSLSSTLTLSKADYEKHKVYACEVTHQGLSSPVTKSFNRGEC
EC50 (nM) of Antibody 1167 in inducing redirected T cell killing in vitro, HCC1954 cells (B7-H4 density 20039 per cell) [8]: 0.8 nM
EC50 (nM) of Antibody 1167 in inducing redirected T cell killing in vitro, MDA-MB-453 cells (B7-H4 density 1198 per cell) [8]: 8.44 nM
EC50 (nM) of Antibody 1167 in inducing redirected T cell killing in vitro, MDA-MB-468 cells (B7-H4 density 83936 per cell) [8]: 0.4 nM
EC50 (nM) of Antibody 1167 in inducing redirected T cell killing in vitro, MX1 cells (B7-H4 density 108684 per cell) [8]: 0.062 nM
EC50 (nM) of Antibody 1167 in inducing redirected T cell killing in vitro, T47D cells (B7-H4 density 6133 per cell) [8]: 0.54 nM

B3: B7-H4 antibody 0052 (antibody, human IgG1, kappa, V domains shown)
VH: QVQLQQWGAGLLKPSETLSLTCAVYGGSFSGYYWNWIRQPPGKGLEWIGEINHSGSTKYNPSLKSRVTISGDTSKNQFSLKLNSVTAADTAVYYCVRGLYNWNVDSWGQGTLVTVSS
VL: DIQMTQSPSSLSASVGDRVTITCRASQGIRNDLGWYQQKPGKAPKRLIYVASSLQSGVPSRFSGSGSGTEFTLTISSLQPEDFATYYCLQHNSYPYTFGQGTKLEIKR
notes: IgG1 mAb format; parental; also called 28D10
Kd [9]: 12.1 nM
koff [9]: 0.00565 s⁻¹
kon [9]: 467000 M⁻¹ s⁻¹
Kd [10]: 883 nM
koff [10]: 0.126 s⁻¹
kon [10]: 143000 M⁻¹ s⁻¹
Kd [11]: 30.7 nM
koff [11]: 0.00424 s⁻¹
kon [11]: 139000 M⁻¹ s⁻¹
